First the molecules themselves.
B1: Hammerhead Ribozyme (parent)
chain: ACCGGAUGUGCUUUCCGGUCUGAUGAGUCCGUGAGGACGAAACAG

Variants of B1 are the subject of this series. Briefly: self-cleavage, relative activity (ratio to wild type); higher = more cleavage; co-transcriptional.
AACGGAUGUGCUUUCCGGUCCGAUGAGUCCGUGAGGACGAAACAG [C2A U21C]: the self-cleavage came out at 0.402.
Regarding AACGGAUGUGCUUUCCGGUCAGAUGAGUCCGUGAGGACGAAACAG [C2A U21A], the self-cleavage was 0.351.
Regarding AACGGAUGUGCUUUCCGGUCGGAUGAGUCCGUGAGGACGAAACAG [C2A U21G], the self-cleavage stood at 0.291.
For AGCGGAUGUGCUUUCAGGUCUGAUGAGUCCGUGAGGACGAAACAG [C2G C16A] the value was 0.335; for AGCGGAUGUGCUUUCUGGUCUGAUGAGUCCGUGAGGACGAAACAG [C2G C16U], 0.299; for AGCGGAUGUGCUUUCGGGUCUGAUGAGUCCGUGAGGACGAAACAG [C2G C16G], 0.294.
In the case of AGCGGAUGUGCUUUCCGGUCUGAUGAGUUCGUGAGGACGAAACAG [C2G C29U], the self-cleavage stood at 0.365.
Take AGCGGAUGUGCUUUCCGGUCUGAUGAGUGCGUGAGGACGAAACAG [C2G C29G]: the self-cleavage worked out at 0.354.
In the case of AGCGGAUGUGCUUUCCGGUCUGAUGAGUACGUGAGGACGAAACAG [C2G C29A], the self-cleavage was found to be 0.311.
Turning to AACGGAUGUGCUUUCCGGCCUGAUGAGUCCGUGAGGACGAAACAG [C2A U19C], the self-cleavage was 0.38.
With AACGGAUGUGCUUUCCGGACUGAUGAGUCCGUGAGGACGAAACAG [C2A U19A], the self-cleavage was 0.308.
Then AACGGAUGUGCUUUCCGGGCUGAUGAGUCCGUGAGGACGAAACAG [C2A U19G], with 0.381; and AGCGGAUGUGCUUUCCGGUCUGAUGAGUCCGUGAGGCCGAAACAG [C2G A37C], with 0.311; and AGCGGAUGUGCUUUCCGGUCUGAUGAGUCCGUGAGGGCGAAACAG [C2G A37G], with 0.351.
As to AGCGGAUGUGCUUUCCGGUCUGAUGAGUCCGUGAGGUCGAAACAG [C2G A37U], the self-cleavage came out at 0.293.
Take AGCGGAUGUGCUUUCCGGUCUGAUGAGUCCGUGGGGACGAAACAG [C2G A34G]: the self-cleavage is 0.279.
Take AGCGGAUGUGCUUUCCGGUCUGAUGAGUCCGUGUGGACGAAACAG [C2G A34U]: the self-cleavage was found to be 0.347.
Take AGCGGAUGUGCUUUCCGGUCUGAUGAGUCCGUGCGGACGAAACAG [C2G A34C]: the self-cleavage amounted to 0.352.
As for AACGGAUGUGCUUUCCGGUCUGACGAGUCCGUGAGGACGAAACAG [C2A U24C], the self-cleavage stood at 0.733.
With AACGGAUGUGCUUUCCGGUCUGAGGAGUCCGUGAGGACGAAACAG [C2A U24G], the self-cleavage was found to be 0.644.
For AACGGAUGUGCUUUCCGGUCUGAAGAGUCCGUGAGGACGAAACAG [C2A U24A], the self-cleavage amounted to 0.929.
On to AGCGGAUGUGCUUUCCGGUCUGAUGAGUCGGUGAGGACGAAACAG [C2G C30G], for which the self-cleavage came to 0.237.
Take AGCGGAUGUGCUUUCCGGUCUGAUGAGUCAGUGAGGACGAAACAG [C2G C30A]: the self-cleavage was 0.374.
Take AGCGGAUGUGCUUUCCGGUCUGAUGAGUCUGUGAGGACGAAACAG [C2G C30U]: the self-cleavage stood at 0.354.
In the case of AGCGGAUAUGCUUUCCGGUCUGAUGAGUCCGUGAGGACGAAACAG [C2G G8A], the self-cleavage is 0.385.
On to AGCGGAUCUGCUUUCCGGUCUGAUGAGUCCGUGAGGACGAAACAG [C2G G8C], for which the self-cleavage was 0.302.
Regarding AGCGGAUUUGCUUUCCGGUCUGAUGAGUCCGUGAGGACGAAACAG [C2G G8U], the self-cleavage is 0.387.
In the case of AGCGGCUGUGCUUUCCGGUCUGAUGAGUCCGUGAGGACGAAACAG [C2G A6C], the self-cleavage worked out at 0.196.
As for AGCGGGUGUGCUUUCCGGUCUGAUGAGUCCGUGAGGACGAAACAG [C2G A6G], the self-cleavage was determined as 0.292.
Then AGCGGUUGUGCUUUCCGGUCUGAUGAGUCCGUGAGGACGAAACAG [C2G A6U], with 0.321; and AACGGAUGUGCUUGCCGGUCUGAUGAGUCCGUGAGGACGAAACAG [C2A U14G], with 0.697; and AACGGAUGUGCUUCCCGGUCUGAUGAGUCCGUGAGGACGAAACAG [C2A U14C], with 0.397.
Then AACGGAUGUGCUUACCGGUCUGAUGAGUCCGUGAGGACGAAACAG [C2A U14A], with 0.509; and AGCGGAUGUGCUUUCCGGUCUGAUGACUCCGUGAGGACGAAACAG [C2G G27C], with 0.303; and AGCGGAUGUGCUUUCCGGUCUGAUGAAUCCGUGAGGACGAAACAG [C2G G27A], with 0.282.
For AGCGGAUGUGCUUUCCGGUCUGAUGAUUCCGUGAGGACGAAACAG [C2G G27U] the value was 0.327; for AACGGAUGUGCCUUCCGGUCUGAUGAGUCCGUGAGGACGAAACAG [C2A U12C], 0.5.
Take AACGGAUGUGCGUUCCGGUCUGAUGAGUCCGUGAGGACGAAACAG [C2A U12G]: the self-cleavage came out at 0.736.
As to AACGGAUGUGCAUUCCGGUCUGAUGAGUCCGUGAGGACGAAACAG [C2A U12A], the self-cleavage came out at 0.62.
For AACGGAUGUGCUUUCCGGUCUGAUGAGGCCGUGAGGACGAAACAG [C2A U28G], the self-cleavage amounted to 0.308.
AACGGAUGUGCUUUCCGGUCUGAUGAGACCGUGAGGACGAAACAG [C2A U28A]: the self-cleavage came out at 0.394.
For AACGGAUGUGCUUUCCGGUCUGAUGAGCCCGUGAGGACGAAACAG [C2A U28C] the value was 0.417; for AGCGGAUGUGCUUUCCGGUCUGAUCAGUCCGUGAGGACGAAACAG [C2G G25C], 0.267.
As for AGCGGAUGUGCUUUCCGGUCUGAUUAGUCCGUGAGGACGAAACAG [C2G G25U], the self-cleavage turned out to be 0.272.
On to AGCGGAUGUGCUUUCCGGUCUGAUAAGUCCGUGAGGACGAAACAG [C2G G25A], for which the self-cleavage was 0.325.
For AGCGGAUGUGCUUUCCGGUCUGAUGCGUCCGUGAGGACGAAACAG [C2G A26C] the value was 0.341; for AGCGGAUGUGCUUUCCGGUCUGAUGUGUCCGUGAGGACGAAACAG [C2G A26U], 0.315; for AGCGGAUGUGCUUUCCGGUCUGAUGGGUCCGUGAGGACGAAACAG [C2G A26G], 0.292.
Then AACGGAUGGGCUUUCCGGUCUGAUGAGUCCGUGAGGACGAAACAG [C2A U9G], with 0.44; and AACGGAUGCGCUUUCCGGUCUGAUGAGUCCGUGAGGACGAAACAG [C2A U9C], with 0.695; and AGCGGAUGUGCUUUCCGGUCUGAUGAGUCCGUGAGGACGAAACGG [C2G A44G], with 0.627.
Turning to AGCGGAUGUGCUUUCCGGUCUGAUGAGUCCGUGAGGACGAAACCG [C2G A44C], the self-cleavage is 0.322.
Regarding AGCGGAUGUGCUUUCCGGUCUGAUGAGUCCGUGAGGACGAAACUG [C2G A44U], the self-cleavage is 0.323.
Take AGCGGAUGUGUUUUCCGGUCUGAUGAGUCCGUGAGGACGAAACAG [C2G C11U]: the self-cleavage is 0.32.
Turning to AGCGGAUGUGAUUUCCGGUCUGAUGAGUCCGUGAGGACGAAACAG [C2G C11A], the self-cleavage was determined as 0.378.
On to AGCGGAUGUGGUUUCCGGUCUGAUGAGUCCGUGAGGACGAAACAG [C2G C11G], for which the self-cleavage is 0.402.
Turning to AGCGGAUGUGCUUUCCGGUCUCAUGAGUCCGUGAGGACGAAACAG [C2G G22C], the self-cleavage is 0.296.

These data come from the RNAGym collection of RNA variant scans (doi:10.7554/elife.80360).
